Source: US20250066503A1, “CELL INJURY INDUCING THERAPEUTIC DRUG FOR USE IN CANCER THERAPY” (CHUGAI SEIYAKU KABUSHIKI KAISHA, priority 2016, published 2025)

Experiments:
NCI-H446 tumor tissues = test: Tumor infiltrating lymphocyte (TIL) analysis of tumor tissues; type: in vivo, humanized NOG mice; settings: in combination with a chemotherapeutic agent, paclitaxel or capecitabine; sixth day after antibody-38 administration; compared to either alone
Experimental: The tumor samples were prepared as follows. The tumor samples when antibody-38 was used in combination with a chemotherapeutic agent in the humanized NOG mouse model were prepared by the procedure described below. 2.5 Gy of X ray was irradiated to NOG mice (In-Vivo Science Inc., Y). On the following day, 1×10^5 CD34-positive hematopoietic stem cells which are derived from umbilical cord blood were transplanted into the NOG mice by tail vein injection. After 16 to 20 weeks, each of human cancer cell lines (MKN45 and NCI-H446) was mixed with Matrigel™ Basement Membrane Matrix, and transplanted subcutaneously into the humanized NOG mice. The day of transplantation was defined as Day 0.
When tumor was established, the mice were separated into groups based on tumor size and body weight. Antibody-38 and the pharmaceutical agents for use in combination were administered according to the dose and dosing regimen described in Table 21. The mice were euthanized at the timing described in Table 21, and tumor was excised and preserved for use in tumor infiltrating lymphocyte (TIL) analysis, pathological analysis, or RNA analysis.
TIL analysis was performed as follows. Tumor tissues which were dissected from mice transplanted with NCI-H446 described in Table 21 on the sixth day after antibody-38 administration were dissociated into cells by enzyme treatment using gentle MACS™ Octo Dissociator. […]

[1] = tested on: cell lines derived from various cancer types (GPC3-expressing target cells); test: TDCC activity by LDH release test with human PBMCs as effector cells; type: cell-based; settings: about 24 hours
Experimental: TDCC activity of each test antibody was measured by the method described below. Human peripheral blood mononuclear cells (hereinafter referred to as human PBMCs) were used as effector cells and TDCC activity of each test antibody was measured as follows.
50 ml of peripheral blood was collected from a healthy person in Chugai Pharmaceutical Co. Ltd. using a syringe pre-loaded with 500 μl of 5000 units/5 ml heparin solution. The peripheral blood diluted two-fold with PBS was divided into four aliquots and added to Leucosep tubes for lymphocyte separation (GE Healthcare) which had been loaded with 15 ml of Ficoll-Paque PLUS and centrifuged in advance. […]
TDCC activity was assessed by an LDH release method (LDH Cytotoxicity Detection Kit, TAKARA). […] The absorbance at 490 to 492 nm was measured with a plate reader. The reference wavelength used was 600 to 620 nm, and the absorbance was subtracted from that at 490 to 492 nm. […]
Cytotoxic activity was determined based on this equation.
Here, A represents the absorbance of a mixture of target cells, effector cells, and antibody; B represents the absorbance of effector cells; C represents the absorbance of target cells; and D represents the absorbance of target cells with Triton X-100 added.

PC-10 xenograft tumor = test: In vivo drug efficacy, humanized NOG mouse model; parameters: species or system humanized NOG mice; settings: 0.008, 0.04, 0.2, or 1 mg/kg once through the tail vein, compared to the vehicle-administered group
Experimental: Methods called an NOD scid/T cell-injected model, a humanized NOG mouse model, and a human CD3εδγ gene-modified mouse model were used in the in vivo drug efficacy evaluation. Assay using an NOD scid/T cell-injected model was performed as follows. […] T cells expanded by culturing human PBMCs in vitro were injected into the NOD scid mice with confirmed tumor establishment. The mice were treated by administering bispecific antibody-38 and bispecific antibody-30, -31, -32, or -33. Assay using a humanized NOG mouse model was performed as follows. CD34-positive hematopoietic stem cells derived from umbilical cord blood were transplanted into NOG mice by tail vein injection. Human T cells are constantly supplied in the mice, which are called humanized NOG mice. The PC-10 cell line was transplanted into humanized NOG mice. The humanized NOG mice with confirmed establishment of PC-10 tumor were treated by administering antibody-38. Assay using a human CD3εδγ gene-modified mouse model was performed as follows. Cells of mouse-derived cell line forced to express human GPC3 were transplanted into a human CD3εδγ gene-modified mouse model, which had been prepared according to Reference Example 10. The human CD3εδγ gene-modified mice with confirmed tumor establishment were treated by administering antibody-38. […]

B1: antibody-38: anti-human CD3ε chain and anti-human GPC3 bispecific antibody; H chains SEQ ID NO: 385 and 402, common L chains SEQ ID NO: 410 (antibody)
heavy 1: QVQLVQSGAEVKKPGASVTVSCKASGYTFTDYEMHWIRQPPGEGLEWIGAIDGPTPDTAYSEKFKGRVTLTADKSTSTAYMELSSLTSEDTAVYYCTRFYSYTYWGQGTLVTVSSASTKGPSVFPLAPCSRSTSESTAALGCLVKDYFPEPVTVSWNSGALTSGVHTFPAVLQSSGLYSLSSVVTVPSSSLGTQTYTCNVDHKPSNTKVDKRVESKYGPPCPPCPAPEFRGGPKVFLFPPKPKDTLMISRTPEVTCVVVDVSQEDPEVQFNWYVDGVEVHNAKTKPREEQFASTYRVVSVLTVLHQDWLNGKEYKCKVSNKGLPSSIEKTISKAKGQPREPQVYTLPPSQEEMTKNQVSLTCLVKGFYPSDIAVEWESNGQPENNYKTTPPVLDSDGSFFLYSKLTVDKSRWQEGNVFSCSVMHEALHNHYTQESLSLSP
heavy 2: QVQLVESGGGVVQPGGSLRLSCAASGFTFSNAWMHWVRQAPGKGLEWVAQIKDKSQNYATYVAESVKGRFTISRADSKNSIYLQMNSLKTEDTAVYYCRYVHYAAGYGVDIWGQGTTVTVSSASTKGPSVFPLAPCSRSTSESTAALGCLVKDYFPEPVTVSWNSGALTSGVHTFPAVLQSSGLYSLSSVVTVPSSSLGTKTYTCNVDHKPSNTKVDKRVESKYGPPCPPCPAPEFRGGPKVFLFPPKPKDTLMISRTPEVTCVVVDVSQEDPEVQFNWYVDGVEVHNAKTKPREEQFASTYRVVSVLTVLHQDWLNGKEYKCKVSNKGLPSSIEKTISKAKGQPREPQVYTLPPSQKEMTKNQVSLTCLVKGFYPSDIAVEWESNGQPENNYKTTPPVLDSDGSFFLYSKLTVDKSRWQEGNVFSCSVMHEALHNHYTQKSLSLSP
light: DIVMTQSPLSLPVTPGEPASISCRSSQPLVHSNRNTYLHWYQQKPGQAPRLLIYKVSNRFSGVPDRFSGSGSGTDFTLKISRVEAEDVGVYYCGQGTQVPYTFGQGTKLEIKRTVAAPSVFIFPPSDEQLKSGTASVVCLLNNFYPREAKVQWKVDNALQSGNSQESVTEQDSKDSTYSLSSTLTLSKADYEKHKVYACEVTHQGLSSPVTKSFNRGEC
modifications: An artificially generated sequence
B1 was tested. Which “cell populations expressing T cell markers, activated T cell markers, and proteins involved in cytotoxic activity” value (NCI-H446 tumor tissues) did it give?
The value was “increased”.

What about the “TDCC activity (LDH release)” value [1] of the same molecule?
Its value is “clearly observed”.

What about the anti-tumor effect (PC-10 xenograft tumor) of the same molecule?
The anti-tumor effect was “evident, dose-dependent anti-tumor effect”.
